T1: mouse TL1A, soluble, CHO-expressed, residues 76-252 of SEQ ID NO:250 with N-terminal His6-tag (mouse, UniProt Q5UBV8 76-252)
T1 construct: also called mTL1A; mTL1A (CHO)
T1 sequence: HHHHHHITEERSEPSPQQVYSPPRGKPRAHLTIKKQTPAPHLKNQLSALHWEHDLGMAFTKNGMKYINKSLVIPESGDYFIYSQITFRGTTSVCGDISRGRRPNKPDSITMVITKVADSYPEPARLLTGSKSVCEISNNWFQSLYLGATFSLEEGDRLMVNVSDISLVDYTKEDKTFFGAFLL

T2: full length rat TL1A expressed on HEK293 cells (rat, UniProt Q8K3Y7 1-252)
T2 sequence: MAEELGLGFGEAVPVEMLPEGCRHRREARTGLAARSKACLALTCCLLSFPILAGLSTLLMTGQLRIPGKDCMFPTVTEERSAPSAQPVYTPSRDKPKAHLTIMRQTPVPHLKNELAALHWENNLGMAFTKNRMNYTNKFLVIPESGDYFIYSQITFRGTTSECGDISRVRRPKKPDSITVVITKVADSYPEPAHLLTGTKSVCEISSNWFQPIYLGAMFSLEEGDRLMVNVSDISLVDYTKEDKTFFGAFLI

T3: human TL1A, soluble, CHO-expressed, residues 72-251 of SEQ ID NO:244 with N-terminal His6-tag (human, UniProt O95150 72-251)
T3 sequence: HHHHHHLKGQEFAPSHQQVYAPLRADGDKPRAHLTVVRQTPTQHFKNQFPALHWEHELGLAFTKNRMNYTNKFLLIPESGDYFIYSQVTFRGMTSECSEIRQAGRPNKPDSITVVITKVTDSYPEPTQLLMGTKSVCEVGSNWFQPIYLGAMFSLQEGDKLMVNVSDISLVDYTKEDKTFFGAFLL

T4: Fhm, hTL1A(Q167R), soluble, CHO-expressed, residues 72-251 of SEQ ID NO:246 (human, UniProt O95150 72-251)
T4 construct: also called Fhm (CHO); FHM (CHO)
T4 chain: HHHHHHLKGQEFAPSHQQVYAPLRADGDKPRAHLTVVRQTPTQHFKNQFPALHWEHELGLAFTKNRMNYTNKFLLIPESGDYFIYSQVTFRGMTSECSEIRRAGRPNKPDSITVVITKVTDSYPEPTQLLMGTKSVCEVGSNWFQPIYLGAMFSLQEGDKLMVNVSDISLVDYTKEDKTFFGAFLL


Experiments:
[1] = molecular target: T1, mouse TL1A, soluble, CHO-expressed, …; assay: SPR 25C, mAb captured
Method in brief: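 Biacore T100 SPR with captured mAb and soluble TL1A/Fhm analyte; ka and kd fitted to a 1:1 model assuming monomeric TL1A. KD = kd/ka; t1/2 (min) = ln2/(60·kd).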

[2] = molecular target: T2, full length rat TL1A expressed on …; assay: cell-based or functional assay
[3] = molecular target: T3, human TL1A, soluble, CHO-expressed, …; assay: cell-based or functional assay
[4] = molecular target: T4, Fhm, hTL1A(Q167R), soluble, …; assay: ELISA, blocks FHM (150 pM) binding hDR3-Fc
Description: (§1) The ability of antibodies to block human TL1A binding to its cognate receptors, the DR3 and DcR3 receptors, was measured using a competition sandwich ELISA. In addition, blocking of a human TL1A variant FHM (human TL1A Q167R) and the cynomolgus monkey (Macaca fascicularis) TL1A (MfTL1A) protein binding to the human DR3 or DcR3 receptors was measured in the same manner. Constant amounts of biotinylated human TL1A or FHM (both expressed with a 6-His tag in CHO cells) or biotinylated MfTL1A (expressed in CHO cells) were separately titrated with varying amounts of antibodies. The antibody-protein complexes were incubated in solution (1 hr, 25° C.) and then transferred to microtiter plates coated with human DR3 (hDR3) or human DcR3 (hDcR3) expressed as human IgG1 Fc fusion proteins. After one hour at 25° C. the wells were washed, and bound human or monkey TL1A was detected with streptavidin conjugated with horseradish peroxidase (HRP). Wells were developed with a TMB solution to produce a colorimetric reaction and quenched with aqueous sulfuric acid before reading absorbance at 450 nm on a Perkin-Elmer Victor X5 plate reader. A sigmoidal dose-response curve was fit to the data using the Prism™ data analysis package. […] Both fully human anti-hTL1A mAbs and comparator antibodies, i.e., control mAb1 (an anti-hTL1A antibody with heavy and light chain variable domains having the amino acid sequences corresponding to SEQ ID NOS:21 and 27, respectively, of US 2009/0280116) and control mAb3 (an anti-hTL1A antibody with heavy and light chain variable domains having the amino acid sequences corresponding to SEQ ID NOS:57 and 48, respectively, of US 2009/0280116), were included in the study. NB: No binding under the conditions tested; NT: Not tested. Concentrations of biotinylated soluble ligands: (1) 150 pM; (2) 500 pM; (3) 10 pM; and (4) 50 pM.

[5] = molecular target: T4, Fhm, hTL1A(Q167R), soluble, …; assay: ELISA, blocks FHM (10 pM) binding hDcR3-Fc
Description: as §1

| Binder | IC50, reporter + 10,000 TL1A cells [2] | % Blocking IFN-g, D1, 1 ug/ml mAb [3] | % Blocking IFN-g, D1, 3 ug/ml mAb [3] | % Blocking IFN-g, D2, 1 ug/ml mAb [3] | % Blocking IFN-g, D2, 3 ug/ml mAb [3] | % Blocking IFN-g, D3, 1 ug/ml mAb [3] | % Blocking IFN-g, D3, 3 ug/ml mAb [3] | % Blocking IFN-g, D4, 1 ug/ml mAb [3] | % Blocking IFN-g, D4, 3 ug/ml mAb [3] | % Blocking IFN-g, D5, 1 ug/ml mAb [3] | % Blocking IFN-g, D5, 3 ug/ml mAb [3] | % Blocking IFN-g, D6, 1 ug/ml mAb [3] | % Blocking IFN-g, D6, 3 ug/ml mAb [3] | % Blocking IFN-g, D7, 1 ug/ml mAb [3] | % Blocking IFN-g, D7, 3 ug/ml mAb [3] | % Blocking IFN-g, D8, 1 ug/ml mAb [3] | % Blocking IFN-g, D8, 3 ug/ml mAb [3] | % Blocking IFN-g, D9, 1 ug/ml mAb [3] | % Blocking IFN-g, D9, 3 ug/ml mAb [3] | % Blocking IFN-g, D10, 1 ug/ml mAb [3] | further results |
| --- | --- | --- | --- | --- | --- | --- | --- | --- | --- | --- | --- | --- | --- | --- | --- | --- | --- | --- | --- | --- | --- |
| H4H1817N (antibody, human IgG4 S228P, V domains shown, human IgG4(S108P) form of H2M1817N) VH: QVQLQQWGAGLLKPSETLSLTCAVSGGSFSDYFWTWIRQPPGKGLEWIGEISHSGRTNYNPSLKSRVTISVDTSMSQFSLKMTSVTAADSAVYYCARDYPNWVFDYWGQGTLVTVSS VL: EIELTQSPGTLSLSPGEGATLSCRASQSVFNSYLAWYQQKPGQAPRLLIYGASRRATGIPDRFSGSGSGTDFTLTISRLEPGDFAVYFCQQYGNSPLTFGGGTKVEIK | 95 nM | 100% | 100% | 100% | 100% | 90% | 100% | 90% | 100% | 100% | 100% | 45% | 100% | 55% | 100% | 100% | 100% | 55% | 95% | 80% | binding result [1]: no binding (tested: up to 100 nM); % Blocking IFN-g, D10, 3 ug/ml mAb [3]: 85%; IC50 [4]: 0.235 nM |
| H4H1725P (antibody, human IgG4 S228P, V domains shown) VH: QVQLVQSGAEVKKPGASVKVSCKASGYTFTGYYMHWVRQAPGQGLEWMGWIKPKSGGTNYVQKFQGRVTMTRDTSINTAYMELNNLKSDDTAVYYCATGGSQDASDFWGQGTMVTVSS VL: DIQMTQSPSSVSASVGGRVTITCRASQDISIWLAWYQQKPGKAPNLLIYAASSLQSGVPSRFSGSGSGTDFTLTISSLQPEDFATYYCQQADSFPLTFGGGTKVEIK | 190 nM | 90% | 95% | 100% | 100% | 70% | 95% | 85% | 100% | 45% | 90% | 80% | 80% | 60% | 90% | 85% | 100% | 50% | 90% | 95% | % Blocking IFN-g, D10, 3 ug/ml mAb [3]: 100%; IC50 [5]: 0.085 nM; IC50 [4]: 0.018 nM |

From patent US20140120109A1 (Regeneron, published 2014)
